In US8840891 (RSR, dated 2014):
Read-outs that look alike come from different tables or passages of the source.

Tests used:
[1] = molecular target: wild type human TSHR (human) (UniProt P16473); assay: cell-based or functional assay
[2] = molecular target: TSHR with Trp258 mutated to Alanine (human) (UniProt P16473); assay: cell-based or functional assay
[3] = molecular target: TSHR with Lys183 mutated to Aspartic acid (human) (UniProt P16473); assay: cell-based or functional assay
[4] = molecular target: wild type human TSHR (human) (UniProt P16473); assay: cell-based or functional assay; remark: listed apart in the source
[5] = molecular target: wild type human TSHR (human) (UniProt P16473); assay: cell-based or functional assay; remark: listed apart in the source
[6] = molecular target: TSHR with Lys183 mutated to Alanine (human) (UniProt P16473); assay: cell-based or functional assay
[7] = molecular target: wild type human TSHR (human) (UniProt P16473); assay: cell-based or functional assay; remark: listed apart in the source
[8] = molecular target: TSHR with Tyr82 mutated to Alanine (human) (UniProt P16473); assay: cell-based or functional assay
[9] = molecular target: TSHR with Asp151 mutated to Alanine (human) (UniProt P16473); assay: cell-based or functional assay
[10] = molecular target: wild type human TSHR (human) (UniProt P16473); assay: cell-based or functional assay; remark: listed apart in the source
[11] = molecular target: wild type human TSHR (human) (UniProt P16473); assay: cell-based or functional assay; remark: listed apart in the source
[12] = molecular target: TSHR with Glu178 mutated to Alanine expressed on CHO cells (human) (UniProt P16473); assay: cell-based or functional assay
[13] = molecular target: wild type human TSHR (thyrotropin receptor) expressed on CHO cells (human) (UniProt P16473); assay: cell-based or functional assay
[14] = molecular target: TSHR coated onto tubes (TSHR coated tubes) (human) (UniProt P16473); assay: Scatchard analysis, 125I-5C9 IgG and unlabelled 5C9 IgG in TSHR coated tubes
[15] = molecular target: TSHR with Asp232 mutated to Alanine expressed on CHO cells (human) (UniProt P16473); assay: cell-based or functional assay
[16] = molecular target: wild type human TSHR (thyrotropin receptor) expressed on CHO cells (human) (UniProt P16473); assay: cell-based or functional assay; remark: listed apart in the source
[17] = molecular target: TSHR coated onto tubes (TSHR coated tubes) (human) (UniProt P16473); assay: TSHR coated tubes, in the presence of HBD pool (Tables 4a, 4b)

## 5C9 IgG (antibody)
[1]
  cyclic AMP; 5C9 0.01 µg/mL + TSH (fmol/cell well): 19500
  cyclic AMP; 5C9 0.1 µg/mL + TSH (fmol/cell well): 10500
  cyclic AMP; 5C9 1.0 µg/mL + TSH (fmol/cell well): 2620
  cyclic AMP; 5C9 10 µg/mL + TSH (fmol/cell well): 1190
  cyclic AMP; 5C9 100 µg/mL + TSH (fmol/cell well): 1320
  cyclic AMP; 5C9 100 µg/mL only (fmol/cell well): 211
[2]
  Mutated/wild type (%); 5C9 0.01 µg/mL + TSH: 34%
  Mutated/wild type (%); 5C9 0.1 µg/mL + TSH: 19%
  Mutated/wild type (%); 5C9 1.0 µg/mL + TSH: 43%
  Mutated/wild type (%); 5C9 10 µg/mL + TSH: 30%
  Mutated/wild type (%); 5C9 100 µg/mL + TSH: 37%
  Mutated/wild type (%); 5C9 100 µg/mL only: 200%
  cyclic AMP; 5C9 0.01 µg/mL + TSH (fmol/cell well): 6620
  cyclic AMP; 5C9 0.1 µg/mL + TSH (fmol/cell well): 1940
  cyclic AMP; 5C9 1.0 µg/mL + TSH (fmol/cell well): 1130
  cyclic AMP; 5C9 10 µg/mL + TSH (fmol/cell well): 357
  cyclic AMP; 5C9 100 µg/mL + TSH (fmol/cell well): 484
  cyclic AMP; 5C9 100 µg/mL only (fmol/cell well): 423
[3]
  Mutated/wild type (%); 5C9 0.01 µg/mL + TSH: 160%
  Mutated/wild type (%); 5C9 0.1 µg/mL + TSH: 202%
  Mutated/wild type (%); 5C9 1.0 µg/mL + TSH: 370%
  Mutated/wild type (%); 5C9 10 µg/mL + TSH: 591%
  Mutated/wild type (%); 5C9 100 µg/mL + TSH: 524%
  cyclic AMP; 5C9 0.01 µg/mL + TSH (fmol/cell well): 20600
  cyclic AMP; 5C9 0.1 µg/mL + TSH (fmol/cell well): 17300
  cyclic AMP; 5C9 1.0 µg/mL + TSH (fmol/cell well): 12700
  cyclic AMP; 5C9 10 µg/mL + TSH (fmol/cell well): 6590
  cyclic AMP; 5C9 100 µg/mL + TSH (fmol/cell well): 9010
  cyclic AMP; 5C9 100 µg/mL only (fmol/cell well): 54
[4]
  cyclic AMP; 5C9 0.01 µg/mL + TSH (fmol/cell well): 12900
  cyclic AMP; 5C9 0.1 µg/mL + TSH (fmol/cell well): 8580
  cyclic AMP; 5C9 1.0 µg/mL + TSH (fmol/cell well): 3420
  cyclic AMP; 5C9 10 µg/mL + TSH (fmol/cell well): 1110
  cyclic AMP; 5C9 100 µg/mL + TSH (fmol/cell well): 1720
  cyclic AMP; 5C9 100 µg/mL only (fmol/cell well): < 12.5
[5]
  cyclic AMP; 5C9 0.01 µg/mL + TSH (fmol/cell well): 18000
  cyclic AMP; 5C9 0.1 µg/mL + TSH (fmol/cell well): 11500
  cyclic AMP; 5C9 1.0 µg/mL + TSH (fmol/cell well): 3490
  cyclic AMP; 5C9 10 µg/mL + TSH (fmol/cell well): 1230
  cyclic AMP; 5C9 100 µg/mL + TSH (fmol/cell well): 1460
  cyclic AMP; 5C9 100 µg/mL only (fmol/cell well): 384
[6]
  Mutated/wild type (%); 5C9 0.01 µg/mL + TSH: 130%
  Mutated/wild type (%); 5C9 0.1 µg/mL + TSH: 211%
  Mutated/wild type (%); 5C9 1.0 µg/mL + TSH: 418%
  Mutated/wild type (%); 5C9 10 µg/mL + TSH: 618%
  Mutated/wild type (%); 5C9 100 µg/mL + TSH: 786%
  Mutated/wild type (%); 5C9 100 µg/mL only: 195%
  cyclic AMP; 5C9 0.01 µg/mL + TSH (fmol/cell well): 23300
  cyclic AMP; 5C9 0.1 µg/mL + TSH (fmol/cell well): 24300
  cyclic AMP; 5C9 1.0 µg/mL + TSH (fmol/cell well): 14600
  cyclic AMP; 5C9 10 µg/mL + TSH (fmol/cell well): 7570
  cyclic AMP; 5C9 100 µg/mL + TSH (fmol/cell well): 11400
  cyclic AMP; 5C9 100 µg/mL only (fmol/cell well): 747
[7]
  cyclic AMP; 5C9 0.01 µg/mL + TSH (fmol/cell well): 13900
  cyclic AMP; 5C9 0.1 µg/mL + TSH (fmol/cell well): 6250
  cyclic AMP; 5C9 1.0 µg/mL + TSH (fmol/cell well): 1600
  cyclic AMP; 5C9 10 µg/mL + TSH (fmol/cell well): 822
  cyclic AMP; 5C9 100 µg/mL + TSH (fmol/cell well): 978
  cyclic AMP; 5C9 100 µg/mL only (fmol/cell well): 289
[8]
  Mutated/wild type (%); 5C9 0.01 µg/mL + TSH: 113%
  Mutated/wild type (%); 5C9 0.1 µg/mL + TSH: 203%
  Mutated/wild type (%); 5C9 1.0 µg/mL + TSH: 185%
  Mutated/wild type (%); 5C9 10 µg/mL + TSH: 200%
  Mutated/wild type (%); 5C9 100 µg/mL + TSH: 105%
  Mutated/wild type (%); 5C9 100 µg/mL only: 494%
  cyclic AMP; 5C9 0.01 µg/mL + TSH (fmol/cell well): 15700
  cyclic AMP; 5C9 0.1 µg/mL + TSH (fmol/cell well): 12700
  cyclic AMP; 5C9 1.0 µg/mL + TSH (fmol/cell well): 2960
  cyclic AMP; 5C9 10 µg/mL + TSH (fmol/cell well): 1650
  cyclic AMP; 5C9 100 µg/mL + TSH (fmol/cell well): 1030
  cyclic AMP; 5C9 100 µg/mL only (fmol/cell well): 1430
[9]
  Mutated/wild type (%); 5C9 0.01 µg/mL + TSH: 112%
  Mutated/wild type (%); 5C9 0.1 µg/mL + TSH: 143%
  Mutated/wild type (%); 5C9 1.0 µg/mL + TSH: 465%
  Mutated/wild type (%); 5C9 10 µg/mL + TSH: 599%
  Mutated/wild type (%); 5C9 100 µg/mL + TSH: 162%
  Mutated/wild type (%); 5C9 100 µg/mL only: 224%
  cyclic AMP; 5C9 0.01 µg/mL + TSH (fmol/cell well): 12600
  cyclic AMP; 5C9 0.1 µg/mL + TSH (fmol/cell well): 9960
  cyclic AMP; 5C9 1.0 µg/mL + TSH (fmol/cell well): 6450
  cyclic AMP; 5C9 10 µg/mL + TSH (fmol/cell well): 2280
  cyclic AMP; 5C9 100 µg/mL + TSH (fmol/cell well): 1540
  cyclic AMP; 5C9 100 µg/mL only (fmol/cell well): 395
[10]
  cyclic AMP; 5C9 0.01 µg/mL + TSH (fmol/cell well): 11200
  cyclic AMP; 5C9 0.1 µg/mL + TSH (fmol/cell well): 6950
  cyclic AMP; 5C9 1.0 µg/mL + TSH (fmol/cell well): 1390
  cyclic AMP; 5C9 10 µg/mL + TSH (fmol/cell well): 380
  cyclic AMP; 5C9 100 µg/mL + TSH (fmol/cell well): 945
  cyclic AMP; 5C9 100 µg/mL only (fmol/cell well): 176
[11]
  cyclic AMP; 5C9 0.01 µg/mL + TSH (fmol/cell well): 13600
  cyclic AMP; 5C9 0.1 µg/mL + TSH (fmol/cell well): 8700
  cyclic AMP; 5C9 1.0 µg/mL + TSH (fmol/cell well): 4540
  cyclic AMP; 5C9 10 µg/mL + TSH (fmol/cell well): 2390
  cyclic AMP; 5C9 100 µg/mL + TSH (fmol/cell well): 1390
  cyclic AMP; 5C9 100 µg/mL only (fmol/cell well): 212

B1: 5C9 IgG (human monoclonal autoantibody to the TSHR) (antibody, from another filing, V domains shown)
VH: EVQLVESGGGLIQPGGSLRLSCAASGFTVSSNYMSWVRQAPGKGLEWVSVTYSGGSTSYADSVKGRFTISRDNSKNTLYLQMNSLRAEDTAVYYCARGGRYCSSISCYARSGCDYWGQGTLVTVSS
VL: AIQMTQSPSSLSASVGDRVTITCRASQSISNYLNWYQQKPGKAPKLLIYAASSLQSGVPSRFSGSGSGTDFTLTISSLQPEDFATYYCQQSYSSPSTTFGQGTKLEIK
[12]
  Cyclic AMP produced; 5C9 0.01 µg/mL + TSH (fmol/cell well): 8170
  Cyclic AMP produced; 5C9 0.1 µg/mL + TSH (fmol/cell well): 7310
  Cyclic AMP produced; 5C9 1.0 µg/mL + TSH (fmol/cell well): 3570
  Cyclic AMP produced; 5C9 10 µg/mL + TSH (fmol/cell well): 1900
  Cyclic AMP produced; 5C9 100 µg/mL + TSH (fmol/cell well): 894
  Cyclic AMP produced; 5C9 100 µg/mL only (fmol/cell well): 134
  Mutated/wild type (%); 5C9 0.01 µg/mL + TSH: 65%
  Mutated/wild type (%); 5C9 0.1 µg/mL + TSH: 168%
  Mutated/wild type (%); 5C9 1.0 µg/mL + TSH: 519%
  Mutated/wild type (%); 5C9 10 µg/mL + TSH: 302%
  Mutated/wild type (%); 5C9 100 µg/mL + TSH: 126%
  Mutated/wild type (%); 5C9 100 µg/mL only: 68%
[13]
  Cyclic AMP produced; 5C9 0.01 µg/mL + TSH (fmol/cell well): 12600
  Cyclic AMP produced; 5C9 0.1 µg/mL + TSH (fmol/cell well): 4350
  Cyclic AMP produced; 5C9 1.0 µg/mL + TSH (fmol/cell well): 688
  Cyclic AMP produced; 5C9 10 µg/mL + TSH (fmol/cell well): 630
  Cyclic AMP produced; 5C9 100 µg/mL + TSH (fmol/cell well): 712
  Cyclic AMP produced; 5C9 100 µg/mL only (fmol/cell well): 196
[14]
  Ka: 4e+10 M⁻¹
[15]
  Cyclic AMP produced; 5C9 0.01 µg/mL + TSH (fmol/cell well): 15300
  Cyclic AMP produced; 5C9 0.1 µg/mL + TSH (fmol/cell well): 6560
  Cyclic AMP produced; 5C9 1.0 µg/mL + TSH (fmol/cell well): 1880
  Cyclic AMP produced; 5C9 10 µg/mL + TSH (fmol/cell well): 710
  Cyclic AMP produced; 5C9 100 µg/mL + TSH (fmol/cell well): 55
  Cyclic AMP produced; 5C9 100 µg/mL only (fmol/cell well): 99
  Mutated/wild type (%); 5C9 0.01 µg/mL + TSH: 87%
  Mutated/wild type (%); 5C9 0.1 µg/mL + TSH: 89%
  Mutated/wild type (%); 5C9 1.0 µg/mL + TSH: 176%
  Mutated/wild type (%); 5C9 10 µg/mL + TSH: 89%
  Mutated/wild type (%); 5C9 100 µg/mL + TSH: 33%
  Mutated/wild type (%); 5C9 100 µg/mL only: 19%
[16]
  Cyclic AMP produced; 5C9 0.01 µg/mL + TSH (fmol/cell well): 17600
  Cyclic AMP produced; 5C9 0.1 µg/mL + TSH (fmol/cell well): 7330
  Cyclic AMP produced; 5C9 1.0 µg/mL + TSH (fmol/cell well): 1070
  Cyclic AMP produced; 5C9 10 µg/mL + TSH (fmol/cell well): 794
  Cyclic AMP produced; 5C9 100 µg/mL + TSH (fmol/cell well): 166
  Cyclic AMP produced; 5C9 100 µg/mL only (fmol/cell well): 522
[17]
  % of labelled protein bound: 17%
